This note sets out measurements from patent publication US20050124041A1 (YUHAN, published 2005).

This assay concerns the target T1, recombinant human tumor necrosis factor-α (Biosource PHC3011, Belgium) (human, UniProt P01375 77-233).
T1 construct: Bought recombinant protein; also called hTNFα; hTNF-α
Kind of assay: competitive ELISA: TSK11 pre-incubated with soluble hTNFα, then added to hTNFα-coated wells; Scatchard plot analysis (Friguet method). As for the experimental part:
In vitro binding affinity of TSK11 antibody against hTNFα was determined by ELISA assay. Here, each well was coated with 100 μl of recombinant hTNFα at a concentration of 4 μg/ml. Next, in Micro Tube (AXYGEN, U.S.A.) recombinant hTNFα was diluted with PBS solution supplemented with 0.02% bovine serum albumin to obtain the final concentration ranging from 5×10⁻⁹ M to 1×10⁻¹⁰ M. hTNFα diluents having various concentrations were mixed with 30 μg of TSK11 antibody and maintained at 37° C. for 2 hours. The mixed solution was distributed to the each well coated with the recombinant hTNFα, and incubated at 37° C. for 2 hours. Then, 100 μl of a horseradish peroxiadase substrate solution (Bio-rad, 172-1064) was added to the each well and kept at 37° C. for 3 minutes to induce color development. The absorbance of the each well was measured at 410 nm with ELISA reader (Dinatec inc., U.S.A.).
Apparent affinity was determined by calculating a reciprocal of the antigen concentration required in inhibiting 50% of the maximum binding in the competitive ELISA according to Scatchard plot analysis (Friguet E. et al., J. of Immunological Method 77: 305-319, 1985).
A general note: An ELISA detects its analyte on a solid surface through an enzyme-linked reagent.

T1 sequence (P01375 77-233 limits assumed): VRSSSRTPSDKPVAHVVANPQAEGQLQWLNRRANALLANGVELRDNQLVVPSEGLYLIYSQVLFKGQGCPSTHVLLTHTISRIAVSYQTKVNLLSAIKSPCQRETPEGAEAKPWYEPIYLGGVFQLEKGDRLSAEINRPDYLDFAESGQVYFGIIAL

B1: monoclonal antibody produced from the hybridoma cell line TSK11 (antibody, IgG1, V domains shown)
VH: QVQLVQSGPELKKPGETVKISCKASGYTFTHYGMNWVKQAPGEGLKWMGWINTNTGEPRYDEEFKGRFAFSLETSASTAYLQINNLRREDTATYFCARYDSRGFDCWGQGTTLTVSS
VL: QIVLTQSPAIMSASLGERVTMTCTASSSISYNYFHWYQQRPGSSPKLWIYSSSNLASGVPPRISGSGSGTSYSLTISSMEAEDAATYYCHQYERSPWTFGGGTKLEIKR
notes: Mouse hybridoma antibody; also called TSK11 antibody
B1: the Kd (in general, the free concentration of one partner at which half of the binding sites on the other are occupied at equilibrium, for simple one-to-one binding) is 1.95 nM.
